Laboratory results taken from article PMC10210826.

Molecular target: N-terminal biotinylated tetradecapeptide of the C-terminal portion of the SARS-CoV-2 E protein (SARS-CoV-2)
Assay: SPR

**Q.** For “PDZ2 domain of human ZO1 (ZO1-PDZ2 domain) (domain or fragment)”, which Kd is on record?
**A.** 2100 nM
